According to US20030203372A1, “Analysis method” (priority 2000, published 2003):

Experiments:
[1] = test system: primary human cell cultures (11 cell types); assay: Custom gene array, 11 human cell types in normoxia or hypoxia for 6 hr and 18 hr; format: cell-based;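 as to mRNA expression level, #1 HY 18 hr: cell type #1 is adipocyte from subcutaneous adult adipose tissue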;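 as to mRNA expression level, #1 HY 6 hr: cell type #1 is adipocyte from subcutaneous adult adipose tissue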;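 as to mRNA expression level, #1 NO: cell type #1 is adipocyte from subcutaneous adult adipose tissue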;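 as to mRNA expression level, #2 HY 18 hr: cell type #2 is fetal cardiomyocyte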;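 as to mRNA expression level, #2 HY 6 hr: cell type #2 is fetal cardiomyocyte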;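 as to mRNA expression level, #2 NO: cell type #2 is fetal cardiomyocyte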;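 as to mRNA expression level, #3 HY 6 hr: cell type #3 is human umbilical vein endothelial cells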;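 as to mRNA expression level, #3 NO: cell type #3 is human umbilical vein endothelial cells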;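 as to mRNA expression level, #4 HY 18 hr: cell type #4 is adult dermal fibroblast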;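 as to mRNA expression level, #4 HY 6 hr: cell type #4 is adult dermal fibroblast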;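 as to mRNA expression level, #4 NO: cell type #4 is adult dermal fibroblast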;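 as to mRNA expression level, #5 HY 6 hr: cell type #5 is adult hepatocyte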;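 as to mRNA expression level, #5 NO: cell type #5 is adult hepatocyte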;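 as to mRNA expression level, #6 HY 6 hr: cell type #6 is blood-derived macrophage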;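 as to mRNA expression level, #6 NO: cell type #6 is blood-derived macrophage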
How it was run: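 Values are each gene's expression relative to its median over all cell types and conditions, after per-array normalisation to control genes and merging of replicate arrays. Cells were 11 human types, mostly unmodified primary cultures, kept in normoxia or exposed to hypoxia for 6 hr or 18 hr.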

human macrophages = assay: Custom gene array, macrophages with no cytokines, IL-10 or LPS + IFN, in normoxia and hypoxia; format: cell-based; details: Table 16, referenced to median of the gene over 6 conditions
Experimental: Macrophages were derived and cultured as described elsewhere in the specification. A total of 6 experimental conditions were analysed, as shown below. Where cells were treated with cytokines or hypoxia (0.1% oxygen), this was for 6 hr. Lipopolysaccharide (LPS) (from E.coli 026:B6; Sigma), gamma Interferon (IFN) and Interleukin-10 (IL-10) were all used at a final concentration of 100 ng/ml. The effect of gamma Interferon and Lipopolysaccharide is to activate macrophages, with a Th1 biased phenotype, as found in many inflammatory conditions. Interleukin-10 is a Th2 cytokine and de-activates macrophages, and suppresses their effector functions.

B1: p1E1 (nucleic acid, listed as Homo Sapiens)
DNA: TTTTGGTCTGAGAATGATGGACATTTAGACACTGGCGCCAGGTTTGCGCTGGACCGGCGCACGCAGGGGTTGGGCGGACGAAAGACACACAGGTGGGCTACAGGTGTCACACGGCACCAGCCAGGGCCCGGGGTGGCTGGGGTGAGGATGGGTGTTTGGCCAGTGACCAGGAGTCAGGTCAAGTCCAGGTGGTCAGTGCCAGGGGTCCCAGGAGGGGAGGGCAGTGCATTAACCCTCCTGGTGTCCAGCGTCACCAGGCGGTCGTCACAGAAAGCAACCTCGGCCCGGGGCCG
modifications: EST array clone
mRNA expression level, #1 HY 6 hr ([1]; cell type #1, hypoxia 6 hr): 1.31
mRNA expression level, #1 HY 18 hr ([1]; cell type #1, hypoxia 18 hr): 2.14
mRNA expression level, #1 NO ([1]; cell type #1, normoxia): 2.91
mRNA expression level, #2 HY 6 hr ([1]; cell type #2, hypoxia 6 hr): 6.21
mRNA expression level, #2 HY 18 hr ([1]; cell type #2, hypoxia 18 hr): 2.25
mRNA expression level, #2 NO ([1]; cell type #2, normoxia): 3.07
mRNA expression level, #3 HY 6 hr ([1]; cell type #3, hypoxia 6 hr): 2.11
mRNA expression level, #3 HY 18 hr ([1]; cell type #3, hypoxia 18 hr): 1.28
mRNA expression level, #3 NO ([1]; cell type #3, normoxia): 1.08
mRNA expression level, #4 HY 6 hr ([1]; cell type #4, hypoxia 6 hr): 1.01
mRNA expression level, #4 HY 18 hr ([1]; cell type #4, hypoxia 18 hr): 1.21
mRNA expression level, #4 NO ([1]; cell type #4, normoxia): 1.02
mRNA expression level, #5 HY 6 hr ([1]; cell type #5, hypoxia 6 hr): 0.80
mRNA expression level, #5 NO ([1]; cell type #5, normoxia): 0.56
mRNA expression level, #6 HY 6 hr ([1]; cell type #6, hypoxia 6 hr): 1.16
#6 HY 18 hr (mRNA expression level) ([1]; cell type #6, hypoxia 18 hr): 1.25
mRNA expression level, #6 NO ([1]; cell type #6, normoxia): 0.64
#7 HY 6 hr (mRNA expression level) ([1]; cell type #7, hypoxia 6 hr): 0.42
#7 HY 18 hr (mRNA expression level) ([1]; cell type #7, hypoxia 18 hr): 0.29
#7 NO (mRNA expression level) ([1]; cell type #7, normoxia): 0.29
#8 HY 6 hr (mRNA expression level) ([1]; cell type #8, hypoxia 6 hr): 0.47
#8 HY 18 hr (mRNA expression level) ([1]; cell type #8, hypoxia 18 hr): 0.91
#8 NO (mRNA expression level) ([1]; cell type #8, normoxia): 0.28
#9 HY 6 hr (mRNA expression level) ([1]; cell type #9, hypoxia 6 hr): 1.24
#9 HY 18 hr (mRNA expression level) ([1]; cell type #9, hypoxia 18 hr): 0.88
#9 NO (mRNA expression level) ([1]; cell type #9, normoxia): 1.03
#10 HY 6 hr (mRNA expression level) ([1]; cell type #10, hypoxia 6 hr): 0.61
#10 HY 18 hr (mRNA expression level) ([1]; cell type #10, hypoxia 18 hr): 0.60
#10 NO (mRNA expression level) ([1]; cell type #10, normoxia): 0.32
#11 HY 6 hr (mRNA expression level) ([1]; cell type #11, hypoxia 6 hr): 4.39
#11 HY 18 hr (mRNA expression level) ([1]; cell type #11, hypoxia 18 hr): 2.33
#11 NO (mRNA expression level) ([1]; cell type #11, normoxia): 3.03
HIGHEST FOLD CHANGE IN HYPOXIA (hr hypoxia + cell type) ([1]; hypoxia/normoxia induction ratio, 6 hr cardiomyocyte): 3.24 (6 hr cardiomyocyte) fold
mRNA EXPRESSION (experimental condition) #1 (human macrophages; #1 no cytokines/normoxia): 1.21
mRNA EXPRESSION (experimental condition) #2 (human macrophages; #2 no cytokines/hypoxia): 1.64
mRNA EXPRESSION (experimental condition) #3 (human macrophages; #3 IL-10/normoxia): 0.94
mRNA EXPRESSION (experimental condition) #4 (human macrophages; #4 IL-10/hypoxia): 1.35
mRNA EXPRESSION (experimental condition) #5 (human macrophages; #5 LPS/IFN/normoxia): 0.51
mRNA EXPRESSION (experimental condition) #6 (human macrophages; #6 LPS/IFN/hypoxia): 0.63
